Laboratory results reported in patent US20230287598A1.
“And” between values parts separate entries of the source, which are not always exact repeats. Equal entries are not always repeated. Where two headings read alike, the source gives them in different places. Values belong to the substance of their own block, whether it stands above or below them.

Columns and labels:
[1] = biological target: CXCR1 (UniProt P25024); test: cell-based or functional assay
[2] = biological target: CXCR1 (UniProt P25024); test: cell-based or functional assay; remark: listed apart in the source
[3] = biological target: Kv1.3 (human) (UniProt P22001); test: cell-based or functional assay
Kv1.3 (human), sequence (P22001 whole entry): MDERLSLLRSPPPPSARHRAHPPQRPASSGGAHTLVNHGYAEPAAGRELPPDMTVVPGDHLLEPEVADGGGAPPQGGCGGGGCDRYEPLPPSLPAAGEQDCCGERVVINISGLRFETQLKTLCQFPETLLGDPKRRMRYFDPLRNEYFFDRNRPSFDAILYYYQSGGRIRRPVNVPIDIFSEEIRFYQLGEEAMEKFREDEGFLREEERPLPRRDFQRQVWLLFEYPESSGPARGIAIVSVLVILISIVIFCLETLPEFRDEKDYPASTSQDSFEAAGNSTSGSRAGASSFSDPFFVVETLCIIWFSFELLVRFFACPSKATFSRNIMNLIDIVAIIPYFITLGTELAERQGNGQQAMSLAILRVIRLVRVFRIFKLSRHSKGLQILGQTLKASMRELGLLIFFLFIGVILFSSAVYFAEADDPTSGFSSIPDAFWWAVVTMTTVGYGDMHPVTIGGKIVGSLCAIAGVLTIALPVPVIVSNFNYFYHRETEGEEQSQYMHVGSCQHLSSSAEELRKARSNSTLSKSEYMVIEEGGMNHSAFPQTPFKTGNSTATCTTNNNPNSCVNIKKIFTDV

[4] = biological target: CXCR1 (UniProt P25024); test: flow cytometry on CXCR1-U2OS cells, supernatant IgG (parental U2OS: 76)
[5] = biological target: CXCR1 (UniProt P25024); test: flow cytometry, CXCR1-U2OS / parental U2OS; HC BLV1H12+CDR3-IL8

soluble IL-8, sequence (P10145 28-99 limits assumed): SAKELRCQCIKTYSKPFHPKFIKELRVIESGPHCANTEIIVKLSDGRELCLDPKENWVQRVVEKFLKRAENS
IL-8, sequence (P10145 28-99 limits assumed): as above
CXCR1, sequence (P25024 whole entry): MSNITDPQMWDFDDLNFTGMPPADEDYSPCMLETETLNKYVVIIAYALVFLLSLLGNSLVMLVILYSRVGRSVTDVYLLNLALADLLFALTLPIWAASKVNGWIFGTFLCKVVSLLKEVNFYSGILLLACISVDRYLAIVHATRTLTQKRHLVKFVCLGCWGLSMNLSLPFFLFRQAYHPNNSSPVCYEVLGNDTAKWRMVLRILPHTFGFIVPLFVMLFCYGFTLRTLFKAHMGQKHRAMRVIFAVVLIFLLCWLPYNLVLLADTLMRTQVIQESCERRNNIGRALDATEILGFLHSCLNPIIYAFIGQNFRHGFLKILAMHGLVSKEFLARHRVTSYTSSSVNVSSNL

Substance: IL-8 (from UniProt P10145 28-99) (ligand)
CXCR1 activation, luminescence at 0.4 nM IL-8 domains [1]: 6530
CXCR1 activation, luminescence at 1.6 nM IL-8 domains [1]: 12200
CXCR1 activation, luminescence at 6.25 nM IL-8 domains [1]: 28600
CXCR1 activation, luminescence at 25 nM IL-8 domains [1]: 50500
CXCR1 activation, luminescence at 100 nM IL-8 domains [1]: 70200
CXCR1 activation, average RLU at 0.01 nM [2]: 440 RLU
CXCR1 activation, average RLU at 0.08 nM [2]: 504 RLU
CXCR1 activation, average RLU at 0.23 nM [2]: 940 RLU
CXCR1 activation, average RLU at 0.69 nM [2]: 1940 RLU
CXCR1 activation, average RLU at 2.06 nM [2]: 4110 RLU
CXCR1 activation, average RLU at 6.17 nM [2]: 5870 RLU
CXCR1 activation, average RLU at 18.52 nM [2]: 7300 RLU
CXCR1 activation, average RLU at 31.5 nM [2]: 55500 RLU
CXCR1 activation, average RLU at 55.56 nM [2]: 7360 RLU
CXCR1 activation, average RLU at 166.67 nM [2]: 6770 RLU
CXCR1 activation, average RLU at 500.00 nM [2]: 5720 RLU
CXCR1 activation, luminescence at 0.4 nM IL-8 domains [2]: 4930
CXCR1 activation, luminescence at 1.6 nM IL-8 domains [2]: 8730
CXCR1 activation, luminescence at 6.25 nM IL-8 domains [2]: 22300
CXCR1 activation, luminescence at 25 nM IL-8 domains [2]: 42200
CXCR1 activation, luminescence at 100 nM IL-8 domains [2]: 54000

Substance: BLV1H12+CDR3-IL8 IgG (antibody)
Median Arbitrary Fluorescence Units (AFU) [4]: 707 AFU
CXCR1 activation, average RLU at 0.001 nM IgG [2]: 7440 RLU
CXCR1 activation, average RLU at 0.004 nM IgG [2]: 7240 RLU
CXCR1 activation, average RLU at 0.01 nM [2]: 435 RLU
CXCR1 activation, average RLU at 0.013 nM IgG [2]: 7330 RLU
CXCR1 activation, average RLU at 0.040 nM IgG [2]: 7740 RLU
CXCR1 activation, average RLU at 0.08 nM [2]: 822 RLU
CXCR1 activation, average RLU at 0.120 nM IgG [2]: 8870 RLU
CXCR1 activation, average RLU at 0.23 nM [2]: 1520 RLU
CXCR1 activation, average RLU at 0.359 nM IgG [2]: 13300 RLU
CXCR1 activation, average RLU at 0.69 nM [2]: 2650 RLU
CXCR1 activation, average RLU at 1.076 nM IgG [2]: 23700 RLU
CXCR1 activation, average RLU at 2.06 nM [2]: 3640 RLU
CXCR1 activation, average RLU at 3.228 nM IgG [2]: 34500 RLU
CXCR1 activation, average RLU at 6.17 nM [2]: 4430 RLU
CXCR1 activation, average RLU at 9.685 nM IgG [2]: 39300 RLU
CXCR1 activation, average RLU at 18.52 nM [2]: 5070 RLU
CXCR1 activation, average RLU at 29.056 nM IgG [2]: 47600 RLU
CXCR1 activation, average RLU at 55.56 nM [2]: 5510 RLU
CXCR1 activation, average RLU at 87.167 nM IgG [2]: 52100 RLU
CXCR1 activation, average RLU at 166.67 nM [2]: 6210 RLU
CXCR1 activation, average RLU at 261.500 nM IgG [2]: 56300 RLU
CXCR1 activation, average RLU at 500.00 nM [2]: 6640 RLU

Substance: IgG VH4-4 CDR3 BsaI (lacking the IL-8 insert) (antibody)
CXCR1 activation, average RLU at 0.001 nM IgG [2]: 7500 RLU
CXCR1 activation, average RLU at 0.004 nM IgG [2]: 7390 RLU
CXCR1 activation, average RLU at 0.013 nM IgG [2]: 7050 RLU
CXCR1 activation, average RLU at 0.040 nM IgG [2]: 6970 RLU
CXCR1 activation, average RLU at 0.120 nM IgG [2]: 7330 RLU
CXCR1 activation, average RLU at 0.359 nM IgG [2]: 6690 RLU
CXCR1 activation, average RLU at 1.076 nM IgG [2]: 7180 RLU
CXCR1 activation, average RLU at 3.228 nM IgG [2]: 7030 RLU
CXCR1 activation, average RLU at 9.685 nM IgG [2]: 7170 RLU
CXCR1 activation, average RLU at 29.056 nM IgG [2]: 7100 RLU
CXCR1 activation, average RLU at 87.167 nM IgG [2]: 7140 RLU
CXCR1 activation, average RLU at 261.500 nM IgG [2]: 7540 RLU

Substance: BLV1H12-IL8 (antibody)
CXCR1 activation, luminescence, 0.1 nM IL-8 domains [2]: 4520 luminescence
CXCR1 activation, luminescence, 0.5 nM IL-8 domains [2]: 9940 luminescence
CXCR1 activation, luminescence, 2.2 nM IL-8 domains [2]: 17600 luminescence
CXCR1 activation, luminescence, 9.9 nM IL-8 domains [2]: 25300 luminescence
CXCR1 activation, luminescence, 44 nM IL-8 domains [2]: 32600 luminescence
CXCR1 activation, luminescence, 200 nM IL-8 domains [2]: 32200 luminescence

Second part, the substance after the results:

IL-2 ELISA (A450), Donor 1, 0.01 nM IgG [3]: 2 A450 and 2.15 A450
IL-2 ELISA (A450), Donor 1, 0.75 nM IgG [3]: 2.11 A450 and 2.04 A450
IL-2 ELISA (A450), Donor 1, 68 nM IgG [3]: 1.48 A450 and 1.55 A450
IL-2 ELISA (A450), Donor 2, 0.01 nM IgG [3]: 1.61 A450 and 1.48 A450
IL-2 ELISA (A450), Donor 2, 0.75 nM IgG [3]: 1.56 A450 and 1.52 A450
IL-2 ELISA (A450), Donor 2, 68 nM IgG [3]: 1.5 A450 and 1.37 A450
TNF-α ELISA (A450), Donor 1, 0.01 nM IgG [3]: 1.62 A450 and 1.66 A450
TNF-α ELISA (A450), Donor 1, 0.75 nM IgG [3]: 1.69 A450 and 1.65 A450
TNF-α ELISA (A450), Donor 1, 68 nM IgG [3]: 1.02 A450 and 1.13 A450
TNF-α ELISA (A450), Donor 2, 0.01 nM IgG [3]: 2.07 A450 and 1.77 A450
TNF-α ELISA (A450), Donor 2, 0.75 nM IgG [3]: 2.04 A450 and 1.85 A450
TNF-α ELISA (A450), Donor 2, 68 nM IgG [3]: 1.88 A450 and 1.54 A450
Substance: Negative Control IgG (antibody)

FACS CXCR1/Parental Ratio [5]: 5
Substance: BLV1H12+CDR3-IL8 / BLV1H12 light chain (SEQ ID NO: 412) IgG (antibody)

CXCR1 activation, luminescence, 0.1 nM IL-8 domains [2]: 4200 luminescence
CXCR1 activation, luminescence, 0.5 nM IL-8 domains [2]: 9790 luminescence
CXCR1 activation, luminescence, 2.2 nM IL-8 domains [2]: 25700 luminescence
CXCR1 activation, luminescence, 9.9 nM IL-8 domains [2]: 50300 luminescence
CXCR1 activation, luminescence, 44 nM IL-8 domains [2]: 54100 luminescence
CXCR1 activation, luminescence, 200 nM IL-8 domains [2]: 50400 luminescence
Substance: soluble IL-8 (from UniProt P10145 28-99) (ligand)
